B1: OR4K15 (parent)
chain: GUUAACGGUCAUAGGCCAUGGAAACUAGGAGCACCAUUUCGCUGCCAGUGAAGAAAUGAACAAAGAAAAUCUGGGCCAGGCAGGCAUCAAAAGAAAUAGUCUUGCGCUCAACCAGAAAGUCUGUAAUCAUUUUAAGGGUA

Variants of: B1
Test: self-cleavage, relative activity (ratio to wild type); higher = more cleavage; in vitro, sequencing; the parent is a self-cleaving ribozyme

Variant	self-cleavage
GUUAACGGCCAUAGGCCAUGGAAACUAGGAGCACCAUUUCGCUGCCAGUGAAGAAAUGAACAAAGAAAAUCUGGGCCAGGCAGGCAUCAAAAGAAAUAGUCUUGCGCUCAACCAGAAAGUCCGUAAUCAUUUUAAGGGUA [U9C U122C]	1.15
GUUAACGGUAAUAGGCCAUGGAAACUAGGAGCACCAUUUCGCUGCCAGUGAAGAAAUGAACAAAGAAAAUCUGGGCCAGGCAGGCAUCAAAAGAAGUAGUCUUGCGCUCAACCAGAAAGUCUGUAAUCAUUUUAAGGGUA [C10A A96G]	1.33
GUUAACGGCCAUAGGCCAUGGAAACUAGGAGCACCAUUUCGCUGCCAGUGAAGAAAUGAACAAAGAAAAUCUGGGCCAGGCAGGCAUCAAAAGAAAUAGUCUUGCGCUCAACCAGAAAGUCUGUAAACAUUUUAAGGGUA [U9C U127A]	2.67
GUUAACGGCCAUAGGCCAUGGAAACUAGGAGCACCAUUUCGCUGCCAGUGAAGAAAUGAACAAAGAAAAUCUGGGCCAGGCAGGCAUCAAAAGAAAUAGUCUUGCGCUCAACCAGAAAGUCUGUAACCAUUUUAAGGGUA [U9C U127C]	1.44
GUUAACGGGCAUAGGCCAUGGAAACUAGGAGCACCAUUUCGCUGCCAGUGAAGAAAUGAACAAAGAAAAUCUGGGCCAGGCAGGCAUCAAAAGAGAUAGUCUUGCGCUCAACCAGAAAGUCUGUAAUCAUUUUAAGGGUA [U9G A95G]	0.99
GUUAACGGGCAUAGGCCAUGGAAACUAGGAGCACCAUUUCGCUGCCAGUGAAGAAAUGAACAAAGAAAAUCUGGGCCAGGCAGGCAUCAAAAGAAAUAGUCUUGCGCUCAACCAGAAAAUCUGUAAUCAUUUUAAGGGUA [U9G G119A]	1.48
GUUAACGGGCAUAGGCCAUGGAAACUAGGAGCACCAUUUCGCUGCCAGUGAAGAAAUGAACUAAGAAAAUCUGGGCCAGGCAGGCAUCAAAAGAAAUAGUCUUGCGCUCAACCAGAAAGUCUGUAAUCAUUUUAAGGGUA [U9G A62U]	0.44
GUUAACGGUAAUAGGCCAUGGAAACUAGGAGCACCAUUUCGCUGCCAGUGAAGAAAUGAACAAAGAAAAUCUGGGCCAGGCAGGCAUCAAAAGAAAUAGUCUUGCGCUCAACCAGAAGGUCUGUAAUCAUUUUAAGGGUA [C10A A118G]	1.99
GUUAACGGUUAUAGGCCAUGGAAACUAGGAGCACCAUUUCGCUGCCAGUGAAGAGAUGAACAAAGAAAAUCUGGGCCAGGCAGGCAUCAAAAGAAAUAGUCUUGCGCUCAACCAGAAAGUCUGUAAUCAUUUUAAGGGUA [C10U A55G]	0.52
GUUAACGGCCAUAGGCCAUGGAAACUAGGAGCACCAUUUCGCUGCCAGUGAAGAAAUGAACAAAGAAAAUCUGGGCCAGGCAGGCAUCAAAAGAAAUAGUCUUGCGCUCAACCAGAAAGUCUGUAAUCACUUUAAGGGUA [U9C U130C]	1.05
GUUAACGGUAAUAGGCCAUGGAAACUAGGAGCACCAUUUCGCUGCCAGUGAAGAAAUGAACAAAGAAAAUCUGGGCCAGGCAGGCAUCAAAAGAAAUAGUCUUGCGCUCAACCAGAAAGUCUGCAAUCAUUUUAAGGGUA [C10A U124C]	0.79
GUUAACGGGCAUAGGCCAUGGAAACCAGGAGCACCAUUUCGCUGCCAGUGAAGAAAUGAACAAAGAAAAUCUGGGCCAGGCAGGCAUCAAAAGAAAUAGUCUUGCGCUCAACCAGAAAGUCUGUAAUCAUUUUAAGGGUA [U9G U26C]	0.34
GUUAACGGUAAUAGGCCAUGGAAACUAGGAGCACCAUUUCGCUGCCAGUGAAGAAAUGAACAAAGAAAAUCUGGGCCAGGCAGGCAUCAGAAGAAAUAGUCUUGCGCUCAACCAGAAAGUCUGUAAUCAUUUUAAGGGUA [C10A A90G]	1.02
GUUAACGGGCAUAGGCCAUGGAAACUAGGAGCACCAUUUCGCUGCCAGUGAAGAAAUGAACAAAGAAAAUCUGGGCCAGGCAGGCAUCAAAAGAAAUAGUCUUGCGCUCAACCAGAGAGUCUGUAAUCAUUUUAAGGGUA [U9G A117G]	2.41
GUUAACGGGCAUAGGCCAUGGAAACUAGGAGCACCAUUUCGCUGCCAGUGAAGAAAUGAACAAAGAAAAUCUGGGCCAGGCAGGCAUCAAAAGAAAUAGUCUUGCGCUCAACCAGACAGUCUGUAAUCAUUUUAAGGGUA [U9G A117C]	0.41
GUUAACGGCCAUAGGCCAUGGAAACUAGGAGCACCAUUUCGCUGCCAGUGAAGAAAUGAACAAAGAAAAUCUGGGCCAGGCAGGCAUCAAAAGAAAUAGUCUUGCGCUCAACCAGAAAGUCUGUAAUCAUUGUAAGGGUA [U9C U132G]	1.94
GUUAACGGCCAUAGGCCAUGGAAACUAGGAGCACCAUUUCGCUGCCAGUGAAGAAAUGAACAAAGAAAAUCUGGGCCAGGCAGGCAUCAAAAGAAAUAGUCUUGCGCUCAACCAGAAAGUCUGUAAUCAUUCUAAGGGUA [U9C U132C]	1.45
GUUAACGGGCAUAGGCCAUGGAAACUAGGAGCACCAUUUCGCUGCCAGUGAAGAAAUGAACAAAGAAAAUCUGGGCCAGGCAGGCAUCAAAAGAAAUAGUCCUGCGCUCAACCAGAAAGUCUGUAAUCAUUUUAAGGGUA [U9G U102C]	2.28
GUUAACGGGCAUAGGCCAUGGAAACUAGGAGCACCAUUUCGCUGCCAGUGAAGAAAUGAACAAAGAAAAUCUGGGCCAGGCAGGCAUCGAAAGAAAUAGUCUUGCGCUCAACCAGAAAGUCUGUAAUCAUUUUAAGGGUA [U9G A89G]	1.46
GUUAACGGGCAUAGGCCAUGGAAACUAGGAGCACCAUUUCGCUGCCAGUGAAGAAAUGAACAAAGAAAAUCAGGGCCAGGCAGGCAUCAAAAGAAAUAGUCUUGCGCUCAACCAGAAAGUCUGUAAUCAUUUUAAGGGUA [U9G U72A]	0.19
GUUAACGGCCAUAGGCCAUGGAAACUAGGAGCACCAUUUCGCUGCCAGUGAAGAAAUGAACAAAGAAAAUCUGGGCCAGGCAGGCAUCAAAAGAAAUAGUCUUGCGCUCAACCAGAAAGUCUGUAAUCAUCUUAAGGGUA [U9C U131C]	1.7

Variant	self-cleavage
GUUAACGGGCAUAGGCCAUGGAAACUAGGAGCACCAUUUCGCUGCCAGUGAAGAAAUGAACAAAGAAAAUCUGGGCCGGGCAGGCAUCAAAAGAAAUAGUCUUGCGCUCAACCAGAAAGUCUGUAAUCAUUUUAAGGGUA [U9G A78G]	0.26
GUUAACGGUUAUAGGCCAUGGAAACUAGGAGCACCAUUUCGCUGCCAGUGAAGAAGUGAACAAAGAAAAUCUGGGCCAGGCAGGCAUCAAAAGAAAUAGUCUUGCGCUCAACCAGAAAGUCUGUAAUCAUUUUAAGGGUA [C10U A56G]	0.84
GUUAACGGGCAUAGGCCAUGGAAACUAGGAGCACCAUUUCGCUGCCAGUGAAGAAAAGAACAAAGAAAAUCUGGGCCAGGCAGGCAUCAAAAGAAAUAGUCUUGCGCUCAACCAGAAAGUCUGUAAUCAUUUUAAGGGUA [U9G U57A]	0.51
GUUAACGGCCAUAGGCCAUGGAAACUAGGAGCACCAUUUCGCUGCCAGUGAAGAAAUGAACAAAGAAAAUCUGGGCCAGGCAGGCAUCAAAAGAAAUAGUCUUGCGCUCAACCAGAAAGGCUGUAAUCAUUUUAAGGGUA [U9C U120G]	1.39
GUUAACGGCCAUAGGCCAUGGAAACUAGGAGCACCAUUUCGCUGCCAGUGAAGAAAUGAACAAAGAAAAUCUGGGCCAGGCAGGCAUCAAAAGAAAUAGUCUUGCGCGCAACCAGAAAGUCUGUAAUCAUUUUAAGGGUA [U9C U108G]	0.06
GUUAACGGGCAUAGGCCAUGGAAACUAGGAGCACCAUUUCGCUGCCAGUGAAGAAAUGAACAAAGAAAAUCUGGGCCAGGCAAGCAUCAAAAGAAAUAGUCUUGCGCUCAACCAGAAAGUCUGUAAUCAUUUUAAGGGUA [U9G G83A]	1.07
GUUAACGGUAAUAGGCCAUAGAAACUAGGAGCACCAUUUCGCUGCCAGUGAAGAAAUGAACAAAGAAAAUCUGGGCCAGGCAGGCAUCAAAAGAAAUAGUCUUGCGCUCAACCAGAAAGUCUGUAAUCAUUUUAAGGGUA [C10A G20A]	0.86
GUUAACGGGCAUAGGCCAUGGAAACUAGGAGCACCAUUUCGCUGCCAGUGAAGAAAUGAACAAAGAAAAUCUGGGCCAGGCAGGCAUCAAAAGAAGUAGUCUUGCGCUCAACCAGAAAGUCUGUAAUCAUUUUAAGGGUA [U9G A96G]	1.46
GUUAACGGUAAUAGGCCAUGGAAACUAGGAGCACCAUUUCGCUGCCUGUGAAGAAAUGAACAAAGAAAAUCUGGGCCAGGCAGGCAUCAAAAGAAAUAGUCUUGCGCUCAACCAGAAAGUCUGUAAUCAUUUUAAGGGUA [C10A A47U]	1
GUUAACGGGCAUAGGCCAUGGAAACUAGGAGCACCAUUUCGCUGCCAGUGAAGAAAUGAACAAAGAAAAUCUGGGCCAGGCAGGCAUCAAUAGAAAUAGUCUUGCGCUCAACCAGAAAGUCUGUAAUCAUUUUAAGGGUA [U9G A91U]	1.26
GUUAACGGCCAUAGGCCAUGGAAACUAGGAGCACCAUUUCGCUGCCAGUGAAGAAAUGAACAAAGAAAAUCUGGGCCAGGCAGGCAUCAAAAGAAAUAGUCUUGCGCUCAACCAGAAAGUCUGUAAUCAUUUUAAGGGCA [U9C U139C]	2.45
GUUAACGGGCAUAGGCCAUGGAAACUAGGAGCACCAUUUCGCUGCCAGUGAAGGAAUGAACAAAGAAAAUCUGGGCCAGGCAGGCAUCAAAAGAAAUAGUCUUGCGCUCAACCAGAAAGUCUGUAAUCAUUUUAAGGGUA [U9G A54G]	1.44
GUUAACGGUAAUAGGCCAUGGAAACUAGGAGCACCAUUUCGCUGCCAGUGAAGAAAUGAACAAAGAAAAUCUGGGCCAGGCAGGCGUCAAAAGAAAUAGUCUUGCGCUCAACCAGAAAGUCUGUAAUCAUUUUAAGGGUA [C10A A86G]	0.31
GUUAACGGGCAUAGGCCAUGGAAACUAGGAGCACCAUUUCGCUGCCAGUGAAGAAAUGAACAAAGAAAAUCUGGGCCAGGCAGGCAUCAAAAGAAAUAGCCUUGCGCUCAACCAGAAAGUCUGUAAUCAUUUUAAGGGUA [U9G U100C]	1.91
GUUAACGGGCAUAGGCCAUGGAAACUAGGAGCACCAUUUCGCUGCCAGUGAAGAAAUGAACAAAGAAAAUCUGGGCCAGGCAGGCAUCAAAAGAAAUAGUCUUGCGCUCAACCAGAAAGUCUGUAAUCAUUUUAAGGGUA [U9G]	0.92
GUUAACGGGCAUAGGCCAUGGAAGCUAGGAGCACCAUUUCGCUGCCAGUGAAGAAAUGAACAAAGAAAAUCUGGGCCAGGCAGGCAUCAAAAGAAAUAGUCUUGCGCUCAACCAGAAAGUCUGUAAUCAUUUUAAGGGUA [U9G A24G]	1.4
GUUAACGGUAAUAGGCCAUGGAAACUAGGAGCACCAUAUCGCUGCCAGUGAAGAAAUGAACAAAGAAAAUCUGGGCCAGGCAGGCAUCAAAAGAAAUAGUCUUGCGCUCAACCAGAAAGUCUGUAAUCAUUUUAAGGGUA [C10A U38A]	0.81
GUUAACGGUAAUAGGCCAUGGAAACUAGGAGCACCAUUUCGCUGCCAGUGAAGAAAUGAACAAAGAAGAUCUGGGCCAGGCAGGCAUCAAAAGAAAUAGUCUUGCGCUCAACCAGAAAGUCUGUAAUCAUUUUAAGGGUA [C10A A68G]	0.85
GUUAACGGGCAUAGGCCAUGGAAACUAGGAGCACCAUUUCGCUGCCAGUGAAGAAAUGAACAAAGAAAAUCUGGGCCAGGCAGGCAUCAAAAGAAAUAGUCUUGCGCUCAACCAGAAAGUCUGUAAUCAUUUUAUGGGUA [U9G A135U]	0.85
GUUAACGGUUAUAGGCCAUGGAAACUAGGAGCACCAUUUCGCUGCCGGUGAAGAAAUGAACAAAGAAAAUCUGGGCCAGGCAGGCAUCAAAAGAAAUAGUCUUGCGCUCAACCAGAAAGUCUGUAAUCAUUUUAAGGGUA [C10U A47G]	0

Reference: the RNAGym collection of RNA variant scans (doi:10.7554/elife.90254)
